Here are results for 2 molecules from patent EP4389215A1 (Consejo Superior De Investigaciones Científicas, dated 2024).

The target of series [1] is prion-like domain (PLD) of human TDP-43 (TDP-43 274-414), unmodified (human) (UniProt Q13148). Put plainly: 15N CPMG relaxation dispersion, 200 µM PLD, region 321-343; self-assembly.
For series [2] the target is unchanged. Kind of series: cell-based or functional assay.
Series [3] concerns the molecule itself. Put plainly: cell-based or functional assay.

Where only a bound is given, the exact number is not on record here.

“prion-like domain (PLD) of human TDP-43 (TDP-43 274-414), unmodified (from UniProt Q13148 274-414)” gave a kex (exchange rate, 15N CPMG) in series [1] greater than 2000 s⁻¹. Moreover, in series [2], the t1/2 (h) of ThT aggregation, 10 µM PLD monomer, 0 % PLD seeds worked out at 4.87 h; the t1/2 (h) of ThT aggregation, 10 µM PLD monomer, 0.1 % PLD seeds worked out at 4.99 h; the t1/2 (h) of ThT aggregation, 10 µM PLD monomer, 0.5 % PLD seeds was 2.88 h; the t1/2 (h) of ThT aggregation, 10 µM PLD monomer, 1 % PLD seeds was found to be 2.86 h.

B1: MetO PLD (MetO-PLD polypeptide of the invention; SEQ ID NO: 2 with oxidized methionine residues) (other)
chain: GRFGGNPGGFGNQGGFGNSRGGGAGLGNNQGSNMGGGMNFGAFSINPAMMAAAQAALQSSWGMMGMLASQQNQSGPSGNNQNQGNMQREPNQAFGSGNNSYSGSNSGAAIGWGSASNAGSGSGFNGGFGSSMDSKSSGWGM
modifications: methionine sulfoxide at all Met residues (M307, M311, M322, M323, M336, M337, M339, M359, M405, M414, numbered on full human TDP-43, SEQ ID NO: 3); full MetO validated by mass spectrometry and NMR (M414 not detected by MS)
Regarding B1, in series [3], the “t1/2 (h) of ThT aggregation, 10 µM MetO PLD monomer, 0 % MetO PLD seeds” value was 54.9 h; the “t1/2 (h) of ThT aggregation, 10 µM MetO PLD monomer, 0.1 % MetO PLD seeds” value stood at 38.3 h; the “t1/2 (h) of ThT aggregation, 10 µM MetO PLD monomer, 0.5 % MetO PLD seeds” value worked out at 18.7 h; the “t1/2 (h) of ThT aggregation, 10 µM MetO PLD monomer, 1 % MetO PLD seeds” value turned out to be 18 h.
